Measurements reported in patent US10184140B2, “Materials and methods for production of bi-functional fatty acids in recombinant bacteria” (IOWA STATE UNIVERSITY RESEARCH FOUNDATION, INC., priority 2013, dated 2019).

Assay: Spectrophotometric coupled assay (FabD/FabG, NADPH at 340 nm) of KASIII specific activity with acyl-CoA substrates
Conditions: for Specific Activity with Isobutyryl-CoA: substrate isobutyryl-CoA
Method: The method comprises (i) incubating holo-ACP, malonyl-CoA, acyl-CoA, NADPH, and malonyl-CoA:ACP transacylase (FabD), (ii) adding KASIII and 3-ketoacyl-ACP reductase (FabG), and (iii) measuring the change in absorbance at 340 nm when NADPH is converted to NADP+ during reduction of 3-ketoacyl-ACP to 3-hydroxyl-acyl ACP by FabG.
Activity of A. acidocaldarius KASIII with different acyl-CoA substrates (acetyl-CoA, isobutyryl-CoA and 3-hydroxybutyryl-CoA (Sigma-Aldrich)) was ascertained by a coupled assay. The assay was performed in 96-well plate format with three replicates for each reaction condition. In a total volume of 100 μl for each reaction the reaction mix containing 100 μM holo-ACP, 200 μM malonyl-CoA, 10 mM DTT, 50 μM acyl-CoA substrate (either acetyl-CoA, isobutyryl-CoA or 3-hydroxy-butyryl-CoA) and 200 μM NADPH in 0.1 M sodium phosphate buffer (pH 7.2) was pre-incubated with 60 μg of FabD for two minutes. The reaction was started by the addition of 30 μg of FabG and varying concentrations of A. acidocaldarius (0.5-15 μg). Change in absorbance of NADPH that was being converted to NADP^+ during reduction of 3-ketoacyl-ACP 3-hydroxy-acyl-ACP by FabG was recorded at 340 nm using a Biotek multi-plate reader.
Spectrophotometric assay was used to assess the activity of A. acidocaldarius KASIII with various acyl-CoA substrates. The assay coupled the appearance of the KASIII-product (3-ketoacyl-ACP) to the oxidation of NADPH, catalyzed by 3-ketoacyl-ACP reductase (FabG).
KASIII enzymatic activity was ascertained via spectrophotometric assay, which coupled the appearance of 3-ketoacyl-ACP to the oxidation of NADPH, using the E. coli FabG protein to reduce 3-ketoacyl-ACP to 3-hydroxyacyl-ACP. The assay was performed in a 96-well plate-format with three technical replicates for each reaction condition. In a total volume of 100 μl for each reaction, the reaction mix contained 100 μM holo-ACP, 200 μM malonyl-CoA, 10 mM DTT, 50 μM acyl-CoA substrate, and 200 μM NADPH in 0.1 M sodium phosphate buffer (pH 7.2). This mixture was pre-incubated with 60 μg of FabD for two minutes to initiate synthesis of malonyl-ACP from malonyl-CoA and holo-ACP. The reaction was then started by the addition of 30 μg of FabG and varying concentrations of KASIII enzyme (0.5-15 μg). As KASIII catalysed the condensation of acyl-CoA with malonyl-ACP to form 3-ketoacyl-ACP, FabG reduced the 3-ketoacyl-ACP intermediate to 3-hydroxy-acyl ACP in the presence of NADPH.

B1: E. coli KASIII V215F_L220M: E. coli KASIII double mutant V215F_L220M, amino acid sequence SEQ ID NO:116 (protein)
chain: MYTKIIGTGSYLPEQVRTNADLEKMVDTSDEWIVTRTGIRERHIAAPNETVSTMGFEAATRAIEMAGIEKDQIGLIVVATTSATHAFPSAACQIQSMLGIKGCPAFDVAAACAGFTYALSVADQYVKSGAVKYALVVGSDVLARTCDPTDRGTIIIFGDGAGAAVLAASEEPGIISTHLHADGSYGELLTLPNADRVNPENSIHLTMAGNEVFKFAVTEMAHIVDETLAANNLDRSQLDWLVPHQANLRIISATAKKLGMSMDNVVVTLDRHGNTSAASVPCALDEAVRDGRIKPGQLVLLEAFGGGFTWGSALVRF
modifications: E. coli mutant; (215)..(215) valine at amino acid position 215 replaced with phenylalanine; (220)..(220) leucine at amino acid position 220 replaced with methionine
Substrate acetyl-CoA, n.d. = not detectable
  Specific Activity with Acetyl-CoA: 221 ± 104 nmol/min/mg
n.d. = not detectable
  Specific Activity with Isobutyryl-CoA: 18 ± 5 nmol/min/mg

B2: B. subtilis KASIIIb W221V: B. subtilis KASIIIB single mutant W221V, amino acid sequence SEQ ID NO:128 (protein)
chain: MSKAKITAIGTYAPSRRLTNADLEKIVDTSDEWIVQRTGMRERRIADEHQFTSDLCIEAVKNLKSRYKGTLDDVDMILVATTTSDYAFPSTACRVQEYFGWESTGALDINATCAGLTYGLHLANGLITSGLHQKILVIAGETLSKVTDYTDRTTCVLFGDAAGALLVERDEETPGFLASVQGTSGNGGDILYRAGLRNEINGVQLVGSGKMVQNGREVYKVAARTVPGEFERLLHKAGLSSDDLDWFVPHSANLRMIESICEKTPFPIEKTLTSVEHYGNTSSVSIVLALDLAVKAGKLKKDQIVLLFGFGGGLTYTGLLIKWGM
modifications: B. subtilis KASIIIB mutant; (221)..(221) tryptophan at amino acid position 221 replaced with valine
n.d. = not detectable
  Specific Activity with Isobutyryl-CoA: completely eliminated activity

B3: B. subtilis KASIIIb V226L: B. subtilis KASIIIB single mutant V226L, amino acid sequence SEQ ID NO:130 (protein)
chain: MSKAKITAIGTYAPSRRLTNADLEKIVDTSDEWIVQRTGMRERRIADEHQFTSDLCIEAVKNLKSRYKGTLDDVDMILVATTTSDYAFPSTACRVQEYFGWESTGALDINATCAGLTYGLHLANGLITSGLHQKILVIAGETLSKVTDYTDRTTCVLFGDAAGALLVERDEETPGFLASVQGTSGNGGDILYRAGLRNEINGVQLVGSGKMVQNGREVYKWAARTLPGEFERLLHKAGLSSDDLDWFVPHSANLRMIESICEKTPFPIEKTLTSVEHYGNTSSVSIVLALDLAVKAGKLKKDQIVLLFGFGGGLTYTGLLIKWGM
modifications: B. subtilis KASIIIB mutant; (226)..(226) valine at amino acid position 226 replaced with leucine
Mutant compared with wild-type enzyme
  Loss of activity with isobutyryl-CoA: approximately 50%
n.d. = not detectable
  Specific Activity with Isobutyryl-CoA: 134 ± 6 nmol/min/mg

B4: B. subtilis KASIIIa F208V_M213L: B. subtilis KASIIIA double mutant F208V_M213L, amino acid sequence SEQ ID NO:124 (protein)
chain: MKAGILGVGRYIPEKVLTNHDLEKMVETSDEWIRTRTGIEERRIAADDVFSSHMAVAAAKNALEQAEVAAEDLDMILVATVTPDQSFPTVSCMIQEQLGAKKACAMDISAACAGFMYGVVTGKQFIESGTYKHVLVVGVEKLSSITDWEDRNTAVLFGDGAGAAVVGPVSDDRGILSFELGADGTGGQHLYLNEKRHTIMNGREVFKVAVRQLGESCVNVIEKAGLSKEDVDFLIPHQANIRIMEAARERLELPVEKMSKTVHKYGNTSAASIPISLVEELEAGKIKDGDVVVMVGFGGGLTWGAIAIRWGR
modifications: B. subtilis KASIIIA double mutant; (208)..(208) phenylalanine at amino acid position 208 replaced with valine; (213)..(213) methionine at amino acid position 213 replaced with leucine
n.d. = not detectable
  Specific Activity with Isobutyryl-CoA: 17 ± 7 nmol/min/mg
